Measured values published in the domain aggregation screens of Martell et al. (2025).

Test: soluble fraction after stress (log2 fold change); higher = more stays soluble; pooled small domains, quantitative proteomics
Conditions: stress: 75 degC
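Also: 20 min heating vs room temperature control held 20 min.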

| Sequence | soluble fraction (log2) |
| --- | --- |
| HMTQSGLTQWEFNMLRQALIEMLGEKPGSVFELARLLPLEQEKNVQALRFLLDHDDQFHLKDEYISFVKRT | -2.34 |
| HMTQTAVFSKGEQEYYFPLSKVLFFETDGNTINVHTADDIYETRYRLYELEEMLPGSFMRISKSAVVNTNR | 0.00772 |
| HMTRAEVQALLEKQAKDFEVEVVHRGWKKTVQTPEFAGWYSQQPAEIKALAESDDPAVAIRMLDLFSGTK | -0.0943 |
| HMTRETTQAWWEARQTLPSGEQRSAASLSQEASHVRRFYRWAMQQGLTDRNPADWLPDVRQK | -0.603 |
| HMTRIHEEVVNQVHDLVKEGRFKAGDQLPSERELAEIFKVSRTSVREALRALETQGLIISRTGMGNFIAD | -0.249 |
| HMTRILTEDDIVNFLIRQPDTAYIIAKSFNENERKVKELLDLLIKKNKVREEIVNGVVSYAVN | -0.229 |
| HMTRKQTIYEFLRRMKSQHGLDAVYSTEEIANAVGVSRANVSSDLNRLFEEQLVEKLPGWPVKYRA | -0.344 |
| HMTRNEFMTALRKRLSHLPAEEQDAALKYYEEYFDEAESEEEAARQLGSPDAIADRILADYGAG | 0.327 |
| HMTRPLVILEDVKFPSYNEIVSLTLPDGTRRGGQVLEVSGNKAIVQVFEGTSGIDVKDTHIELTKSS | 0.237 |
| HMTRQEFIRKLQEALNGKLDAATIQDHLKFYDDYIIEEMRKGKSEQEVLELLGDPWAIAKTIVDAS | 0.669 |
| HMTRQKEAILALLTDSRGEALSASELLARLTRSGSSIGRTTVYRLLSQLVDDGVVRAWRDASRGITLYELS | -1.1 |
| HMTRQPSAKEHAVLTAVKEGLRRDGRAPTVRALADMTGAASTSTVQRRISALIDLGLLRRTDGTLEVVE | 0.0806 |
| HMTRRVIRAPAAGIMRSNVKLGDLVKEGDVIAWIGEHEIKAPLTGMVRGLLNDGLAVVGGFKIGDI | 0.286 |
| HMTSEPFYNPRRPQPYWTSETDRHTTYADAVRALAREFSETPEWVESNMGETNDLQEIRRNLSRVKSG | 0.125 |
| HMTSESWAEKSRSLAAAGLIVMGRDAQLKIEGLTNLDPLIEAATASSTRLLTGQTIDELLTIVP | -0.551 |
| HMTSEVLTNATIVKMVKAKLSDDIIIDEINNARVNFDVSPEGIKSLTAQNVTEPVIETMKKAVAAQESI | 0.467 |
| HMTSFDVMLKSAGANKLAVVKLVKELTGLGLKEAKDIVDAAPSKVKEGVSKEEAEELQKQLTGAGAEVEL | -0.113 |
| HMTSHYTVLGVKETDTIEMIRTHYRKLILQFHPDKNQHLTEEERKKLEVKVLQIREAYEKIKKEK | -0.433 |
| HMTSIISLAKARSIALQKVPGATSKNIHLSLDDEDDKQVYEGEIKYKQMEYVFEIDAKTGTFLKWTSERD | -1.92 |
| HMTSKTLSAVEGEGLRLDKFLSNQLPELSRTKIQKMINDGLVFVNNTEAKASLILDGSEFIAYTVPD | -0.243 |
| HMTSLAEQAYRHIRDKLSNGAFVPGEQLVNRVLATEIGVSVIPVREAINRLATEGLVKHVPGSGAFVRQ | -0.0622 |
| HMTSLYDILGIAKTADSQTIKTAFKKKALLYHPDKNNGNLKKEEIFKKISTAYQILSDPKSRANYDLSIA | -0.272 |
| HMTSMNNTEELIDMANKIIDNNPNMVLKYKEGRNVLDFFIGQVMKETKGRANPSATSKIFKDLLEK | -0.0827 |
| HMTSNKTVPYSELKGLISTGKIEYVGIGNTQIRAVSKSGAGIVTYTARRVIPDDTLIPELEKNGIAYGGI | -0.838 |
| HMTSNSLNLKDEISAFLTKNAGISYSAERIAHALNMDNADQFTPIIQTLAQLEREKKVRVTDKGEFEAVIK | 0.02 |
| HMTSSKISFIDPVNGGKVSVSLENSTLEKLQNRFGVNSVVRNEAGDVELKDKAQEFVAGWFADIAYTRG | -0.0154 |

| Sequence | soluble fraction (log2) |
| --- | --- |
| HMTTAGTAIVQTGNSGKLNLREQAYANAGILGRYSNGTAVTVLQKGAAWSYVEVKGQKGYMMSKFLKFTS | -1.53 |
| HMTTEIVRMKKDVKIGQEITAKDIEVVEVGAYNLPDEVIRSSEEVVGKYVSSELLKGEYVLPSKISDTP | 0.22 |
| HMTTEPYILTRMPDGSIKAEPNLNYKGPEQKPGSNIQVKGADGRIYLVPIDGQGKPGKPQLVD | 0.0898 |
| HMTTGLETYPGKIAVVSDDFIDGEGRVQLDGALWRAKTKDHQQLKQGDHVTIVNVKGLTLTVMPDD | 0.716 |
| HMTTGREGLIGAVGTVRQAIAPEGYVFVEGELWRAKSPAGPLEPGTTVRVIAIDGLTLTVMPAE | -0.965 |
| HMTTGTVKWFNDAKGFGFITPDDRSVDVFVHYSNIVGQSGRRTLMEGERVEYEAIEGPKGPQATDVARA | -0.223 |
| HMTTIFDNINGELRRRHLTQQDLAKTIEIDRRTWSKWQDKNDMPASVLLQIAKWLNVTLDYLTRD | -2.57 |
| HMTTIKLTQEDVEKIKSLPKRTFLIGNLQQTGLYDEKTRRFYYLDANGEWNGRLAIINTPPPPPPPP | 0.0273 |
| HMTTKYMVLVNWVKEKVRTNELKTGEKLYSEHEFSRMFHMSRQTVRHGISILERENIVERRQGSGTFIKDA | -2.95 |
| HMTTKYVAVHESKDGYWTIASKPSSKEDAEAMLGGTPKNEVGKVVTLEEAKAHKKTLGEEYLYE | 0.218 |
| HMTTMTTGQRIAAKRKEQGLSQENLGEQLGVSRQAIYKWESDASLPDIDKLIALSRLFGVSTDYLLLE | -0.584 |
| HMTTQIPEEVQKRVNQFYEALDEEDYGEAKQILEELEKATAPDHPTLIQMRTRYEFDTMELR | 0.329 |
| HMTTTPAERQRTILRSLNRVDPVSVDALARLTGVSVVTIRRDLSDLASRDLIRRVHGGALLPTR | -1.62 |
| HMTTYSVDLGDIRAVADSDGKLVELTLHAAVTTHYSHSELADRLNLAFTALREEAQADYETRY | 0.223 |
| HMTTYTGVVTGSGVNVRSGAGTSYPVVGSKTMGDVVTITETVSADGMIWGKIDIGWISMNYVRM | -2.75 |
| HMTVAQEIEARRATIRSSDPAEMARFIRWLIMEGHTEPAADELKKYAENFPEASATTKQLQALLAAR | -0.311 |
| HMTVDIADALRVLGLSDAPDWSDVRAAHRRAIVRTHPDAGGSAGDAARVNQAFDLLRKISGNGERPIPG | 0.012 |
| HMTVDTSELEEMIDDLIKEHPNEWERYSSGEKKVQGFFVGQVMKATSGQADGKAINQILSKRVKS | 0.803 |
| HMTVDYDKFTKDTVVQHNKFGKGVIIMTSGDGEDKIASIAFQGLGVKRFSLAIAASNLKILGKVNED | -2.48 |
| HMTVEVFQSLVQTFREMSPRKAASILEELKRDLAVEILLHMPEDGVAAILARMDPARAARLTEQLALEKD | -1.86 |
| HMTVGEAHLEEVYLKVLKQVEEQGTALIRTTDVETGRPAAGIRRRYMRGTLPDEWVAKFEALPGWTWAPG | -3.04 |
| HMTVGEKIQKYRKDLDLSQEELGQKLLVSRQTISLWEKDQTVPTIDNLIRLREIFGVSVDEILGF | -0.818 |
| HMTVIARQIPPLVPRMLDGLEAFIKLDVPFEEKERLARVQMLRSSLDRDNLDTAEIFRAVLEAYNIELQY | 0.352 |
| HMTVKKEIAKVKPTPLGWLRVRETPSLNGAEITKVNTGESYDVLDKETGWIKIKVSETVEGWVSDAYIELS | -0.319 |
| HMTVLPTENDAKALVGLNEDEAVKIIEGNGWTYRIGSRDGEQFMLTEDYSTSRLTLGIEKSIVVTATI | -0.543 |
| HMTVLVPNLTGKTLLEAEILLDQAGLKKGDVYSESNKNVPKDHIIRQKPAPNTKIQKGATIDIYRSLGPE | -0.0471 |

| Sequence | soluble fraction (log2) |
| --- | --- |
| HMTVNLPPKQKAAILLMSLPPEVSAQLFKELGPDEVHAITLEISKLPPISPDVRAQVIDEFLHSS | -0.641 |
| HMTVSIGSVIARERRLRGDTQQELAERLGVSKAAVSKWEVGQSIPDVTLLPRIAAYFSLTLDEL | -2.45 |
| HMTVVLPGESLTVNIIQEGKELGQGVGYLDDGTMVVIEDGRRYIDQTIEVTVTRVLQTVAGRMIFAQLT | -4.46 |
| HMTWDSFIGYTVTDVQKGYLGEITDVDETTINVLLRVDHKGEELLIPAVEELITEADHEARSLTVSLPEGL | -0.398 |
| HMTYFIADLIGLQVYTDSGELLGKVDDIYNSGSADIYVVKDELGKQILLPGIKDVIKQIDVDNEKIIVHLI | -1.24 |
| HMTYIQSNLKFLRNKMNISQEELAKRLFVTHQTVSNHENGKSQPNFEMIEKYASFFNVPFEDLIHKDLSL | -0.68 |
| HMTYNIPEHYQTIDVKEYVRKLVSDGDSDQIGRVEMELTEFETRNLFPVLKVLIYIIDTMRK | -3 |
| HMTYQTVRYGSTGSAVRQLQSALNQKGYQLSEDGIFGAKTRAAVRDYQKKNGLLLDGIAGSQTWNHLMS | -0.179 |
| HMTYSSESVRYRIKSLIDNETIDEILSDDKIVNILKSQGIDVARRTVAKYREAMGLASSIQRRREKKSA | -0.707 |
| HMVAGGTVSRKLSIETGLPKRKSLIGSWLDQNSVWHNIISVRHRNGYGDGVNYGFYLRSLLTSEGNLAW | -0.0583 |
| HMVAGHLQTKKGYYYIVLNMRTDTGARKTKWIATGIPEGGKKNLKQAEELLAKTRYTYEDMVI | -2.52 |
| HMVAPKTEEQQKMFLESIVTKRQAETLIEKYPNIVQDIIDGTDNVDLANLKGIGEHTYNLIKEKVLSNY | 0.546 |
| HMVAPPILNITTHIFAEEADLRMVMINGVTRREGDSLGENHRLLEITERGLILIFHNKQYTLDV | -4.32 |
| HMVAQEVPYSTFVMRLDRNEVDAVKIIDGNEIEGTFKSPNGDLVQFKTLIPYQDTELMPLLKQKGVRISGS | 0.427 |
| HMVARPVLQIGSTGADVTAIQARLGVSQTGYFGVLTAAAVTNFQRSNGIAASGKVGATTWAKLMQSA | -2.37 |
| HMVAVSQEEATKMALERVSGASAQDIRIQLEFDDGIQKYEGDIIYNGREYEFEIDANTGTFLEWSEERA | -0.176 |
| HMVDETDVPTFTDMTLEEAQNEAKQRNLKLEITESPSDKEKDTILEQDPEPGKTVASGSTVKLTVSNGEE | -0.157 |
| HMVDFHAAYSILRIAPGASWQEIQAAYEKLNDAWREDRYPQVPFWNEKAAFKRREVEQAYEKLRKFHALRH | -2.43 |
| HMVDFVNVVVPVKANYGGEAVVEFLDERLSEFGTEGIYRIELQGETMENPSPDYSQLKAKYHISEIVDRT | 0.0718 |
| HMVDKDFKPLYASLERLDSTSIIEILDSNRIDYRIDQRSGALLVDADQIHQARLSLASAGMPA | -0.263 |
| HMVDLANIDPIASSIKLNGAEADASFNTLEDRRVSVSGSFEENKNYTMEYTFKDYAGGSVTGTLDFKTLA | 0.36 |
| HMVDLAPTEEIIKNLPNNSRSLLIPTLQKIQNAYRYLPSPAMELLSEFLNVTRAEIYGVISFYPSLL | 0.173 |
| HMVDLLDETLIEFYAFANNLIKDLETNSEKYGGMSQFEKELIFNEQITQYQRKLKIDLQDEVG | -1.8 |
| HMVDPRLRSLTPQERRILEHIAEGLTNRQIAEDMFLAEKTVKNYVTSILDKLGMDSRTQAAVYAATHPT | -0.483 |
